Data from the supplement of paper PMC9170038.

Test system: MS2 coat protein
Test: apparent KD of MS2 coat protein; designed switch direction (-1 OFF switch, 1 ON switch): 1; higher = weaker reporter binding
Summary of the method: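 Three titration conditions were used: no input, 200 uM small-molecule ligand, and an oligonucleotide input. In each, SNAP-549-labelled MS2 coat protein was raised from 0.7 or 1.5 nM, doubling, to 3 µM over designed RNA switches transcribed on Illumina chips by stalled E. coli RNA polymerase. Curve fits of normalised cluster fluorescence gave values whose per-design median over clusters is the apparent KD.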

[1] = input ligand: microRNA oligo, concentration not stated
[2] = Eterna round: R95, input ligand: FMN 200 uM
[3] = Eterna round: R95, input ligand: microRNA oligo, concentration not stated
[4] = Eterna round: R95, input ligand: none

Sequence	apparent KD of MS2 coat protein (input ligand: FMN 200 uM) [nM]	apparent KD of MS2 coat protein [1] [nM]	apparent KD of MS2 coat protein (input ligand: none) [nM]	apparent KD of MS2 coat protein [2] [nM]	apparent KD of MS2 coat protein [3] [nM]	apparent KD of MS2 coat protein [4] [nM]
AACGGCAGAUGAGGAUAUACUUGCCAUGCGAGCACGCUCGCUACAUGAGGAUCACCCAUGUAUGGGUAGAAGGCAUCAUGAUAC [Eternabot solution 39] (Eterna round: R96, puzzle: Same State NG 2)	89.6	102	243			
AAGACAUUUGCUUAGGAUAUACAGGGCUCCACAUGAGGAUCACCCAUGUUAAAAGAGGAGUAAAUGUAGAAGGAAGCCUCCAAUA [Zazaes] (puzzle: Same State 2)				19.1	59.8	66.3
AAGGGAUGAGCGUAGGAUAUAGGAGAAGUGACAUGAGGAUCACCCAUGUAGGAGGAGGGAUGAGACUAGAAGGACGAGGUAGGAG [JR_SS2_Sub060] (puzzle: Same State 2)				43.6	56.7	76.8
AAGUAACAUGAGGAUCACCCAUGUGAGGUGAGCGUAGGAUAUCGAGAAGGAAGGGUGGAGCGAGAAGGACGAGGGA [JR_SS1_Sub0101] (puzzle: Same State 1)				565	463	389
AAUAUACAUGAGGAUCACCCAUGUUAGUAAAUGACAGGAUAUCGAAUAAAUAAAUAAUAACGAGAAGGGUCUAAUA [JMF's solution 3] (puzzle: Same State 1)				15.9	30.3	20.8
AAUAUUUAUGCAGGAUAUGAUUAACAUGAGGAUCACCCAUGUGGUGUUGUGAGUAAGGAGAGUGAUCAGAAGGGCAUUUUUUUU [JMF's solution 73] (Eterna round: R96, puzzle: Same State NG 2)	379	271	463			
AAUCGUUUGAUAGGAUAUCGCUAUACAUGAGGAUCACCCAUGUUUACCACGCUGGUUUUUCAUACCGAGAAGGAUUCUGAUGAC [salish99_SSNG02_r04_002] (Eterna round: R96, puzzle: Same State NG 2)	26.2	22.6	29.8			
AAUCGUUUGAUAGGAUAUCGUUAUACAUGAGGAUCACCCAUGUUUACCACGCUGGUUUUUCGUACCGAGAAGGAUUCUGAUGAU [JL JR sub007 mod 6] (Eterna round: R96, puzzle: Same State NG 2)	30.5	20.2	27.5			
AAUUAUUAACAUGAGGAUCACCCAUGUAUUAUUAUUAUUAUUAACAAGCUUUUUCAUGUUAUUAGCUCGUCUUAUAA [Bojan's Design 2] (puzzle: Sensor for hsa-mir-208a version 2)				16.5	31.7	15.4
AAUUGUUUCUGAGGAUAUCAGUAGUAUGCUUUUUGAGAAGGCAGUACAUGAGGAUCACCCAUGUUGUGGUUUGAUAGAAUGAUA [JR_SSNG1_Sub004] (Eterna round: R96, puzzle: Same State NG 1)		130				
ACAAGACAGGGAGGAUAUAGCUGUUCAUCAAAGUUAGAAGGCUCGUACACAUGAGGAUCACCCAUGUUGUCGGCAGUCGACUGA [Eternabot solution 42] (Eterna round: R96, puzzle: Same State NG 1)	7.44	9.67	12.2			
ACAAGCUUUUUGCUCGUCUUCAUGUAAUAACAUGAGGAUCACCCAUGUAACGUUAAAAGUCUCUCGAUAAUAGCUCA [Meechl hsa-mir-208a 1] (puzzle: Sensor for hsa-mir-208a)				132	33.6	348
ACAUGAAAUUGAGGAUAUUUUGUACCUACAUGUGACAUGAGGAUCACCCAUGUGGUAAGUAUAAGAGAGAAGGCAAAGAUAUGU [Equivalence 6 - Jieux - Same State NG 2] (Eterna round: R96, puzzle: Same State NG 2)	30	29.2	45.1			
ACAUGAGACCAAGGAUAUUUUGUACCUACAUGUGACAUGAGGAUCACCCAUGUGGUAAGUAUGAGAGAGAAGGUGGAGAUAUGU [Equivalence 23 - Jieux - Same State NG 2] (Eterna round: R96, puzzle: Same State NG 2)	34.4	21.5	36.5			
ACAUGAGACCGAGGAUAUUUUGUACCUACAUGUGACAUGAGGAUCACCCAUGUGGUAAGUAUGAGAAAGAAGGCGGAGAUAUGU [Equivalence 20 - Jieux - Same State NG 2] (Eterna round: R96, puzzle: Same State NG 2)	22.4	24.8	32.6			
ACAUGAGACCUAGGAUAUCUUGUACCUACAUGUGACAUGAGGAUCACCCAUGUGGUAAGUAUGAGAGAGAAGGAGGAGAUAUGU [Equivalance 54 - Jieux - Same State NG 2] (Eterna round: R96, puzzle: Same State NG 2)	15.4	12.3	17.6			
ACAUGAGACUCAGGAUAUAUUGUACCUACAUGUGACAUGAGGAUCACCCAUGUGGUAAGUAUGACAUAGAAGGGAGAGAUAUGU [Equivalance 86 - Jieux - Same State NG 2] (Eterna round: R96, puzzle: Same State NG 2)	37.3	40.5	59.9			
ACAUGAGAGAUAGGAUAUUGUGUACCUACAUGUGACAUGAGGAUCACCCAUGUGGUAAGUAUGAGCAAGAAGGAUCAGAUAUGU [Equivalance 51 - Jieux - Same State NG 2] (Eterna round: R96, puzzle: Same State NG 2)	23.2	35.9	69.5			
ACAUGAGAGCUAGGAUAUUUUGUACCUACAUGUGACAUGAGGAUCACCCAUGUGGUAAGUAUGAGAAAGAAGGAGCAGAUAUGU [Equivalance 53 - Jieux - Same State NG 2] (Eterna round: R96, puzzle: Same State NG 2)	14.9	30.7	38			
ACAUGAGAGUUAGGAUAUCUUGUACCUACAUGUGACAUGAGGAUCACCCAUGUGGUAAGUAUGACAGAGAAGGAACAGAUAUGU [Equivalance 69 - Jieux - Same State NG 2] (Eterna round: R96, puzzle: Same State NG 2)	36.2	50.2	91.1			
